B1: LAerR (long isoform of AerR) (natural protein)
chain: MNGVAELQTVLVNRMVELATGPELGAMDLLFDEFRAAHVPVEEMATHYIPEAARQIGAAWDSDRIGFAQVTIAISRLQELLHALQTLVTADSVGCANGATVLLIVPPGEQHTLGALIVAMELRRRGVSVRIVFAPGLSDLSRLMATTRFDAALITVGSMDRVEICAKLVKTLSSLTKGRMRVAIGGAIVSQRAEALARTGADLVTNDLSLVISEFSLV

Key:
[1] = target: CrtJ (Rhodobacter capsulatus) (UniProt P26167); assay: MST; Monolith NT.115; RED-NHS-labeled CrtJ kept constant (200 or 500 nM), AerR varied from µM to nM; 20 mM Tris-HCl pH 8.0, 200 mM NaCl; AerR with bound hydroxyl-Cbl (OH-Cbl)
[2] = target: CrtJ (Rhodobacter capsulatus) (UniProt P26167); assay: MST; Monolith NT.115; RED-NHS-labeled CrtJ kept constant (200 or 500 nM), AerR varied from µM to nM; 20 mM Tris-HCl pH 8.0, 200 mM NaCl; SAerR with bound Adenosyl-Cbl (Ado-Cbl)
[3] = target: T1, CrtJ (Rhodobacter capsulatus, UniProt P26167 1-469, labeled using RED-NHS protein labeling kit (Nanotemper)); assay: MST; Monolith NT.115; RED-NHS-labeled CrtJ kept constant (200 or 500 nM), AerR varied from µM to nM; 20 mM Tris-HCl pH 8.0, 200 mM NaCl; AerR with bound hydroxyl-Cbl (OH-Cbl); conditions: both partners purified
T1 construct: CrtJ, redox-responding transcription factor (aerobic repressor of photosystem genes) of Rhodobacter capsulatus; also called SUMO-CrtJ; PpsR (name in some other species); source: recombinant protein from plasmid pSUMO-CrtJ (PMID: 22715852)
T1 sequence (looked up): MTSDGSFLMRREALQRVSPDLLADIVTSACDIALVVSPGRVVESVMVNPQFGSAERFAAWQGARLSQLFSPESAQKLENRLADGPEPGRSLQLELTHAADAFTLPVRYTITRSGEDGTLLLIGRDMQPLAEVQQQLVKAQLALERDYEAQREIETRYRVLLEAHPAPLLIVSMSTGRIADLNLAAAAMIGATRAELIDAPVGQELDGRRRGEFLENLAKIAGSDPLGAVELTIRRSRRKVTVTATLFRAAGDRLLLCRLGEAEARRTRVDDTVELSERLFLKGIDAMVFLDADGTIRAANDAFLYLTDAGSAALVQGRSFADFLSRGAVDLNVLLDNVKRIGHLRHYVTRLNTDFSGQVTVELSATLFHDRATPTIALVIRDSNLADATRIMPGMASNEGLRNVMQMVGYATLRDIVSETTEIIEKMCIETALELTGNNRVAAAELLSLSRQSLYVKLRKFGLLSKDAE

Molecule | EC50 [1] [µM] | EC50 [2] [µM] | EC50 [3] [µM]
SAerR (short isoform of AerR) (natural protein) | 2.1 | 2.1 | –
B1 | – | – | 7.8 ± 1.2
